# Results published in the domain aggregation screens of Martell et al. (2025).
# Assay: soluble fraction after stress (log2 fold change); higher = more stays soluble; pooled small domains, quantitative proteomics
# Conditions: stress: 50 degC
# In short: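 The stress applied to every library was 50°C. These custom libraries of small protein domains were pooled and measured at high throughput with quantitative proteomics as the read-out. Aggregation propensity is expressed as the base-two logarithm of the fold change in how much of each protein remains soluble. The higher the value, the more of that protein stays in solution.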
row,Sequence,soluble fraction (log2)
1,HMEPAPPPAAPPADPELQKRIDKLVEYIGKNGPEFEAVIRDKQHDNPDYAFVFGGEGHAYYRYLLWLLPRP,0.00294
2,HMVIPATPTARRAKIAGLLADRSVRSQGELLTLLADAGIEVTQATLSRDLEALGAVKVRDGRGLVYAVPG,-0.0411
3,HMLPTLSLSVKIYKGEGDIALDLEEMVKAFDQLNFGSYPFSEKGVHGTNIVIRGNDKKHMEEAEDKVRSLT,-0.725
4,HMNGNLRAQVLELMGRADYEPLNKSELSRKLDLQGSDRSSLRILMDELERDHSVVRLKKGRFALKVV,-0.853
5,HMRQMIIIMQKQAAASSVAAVVEFIRSKGLREHISPGAERTIIGAVGDERVFLPQELESLPQVERAIRVL,-1.14
6,HMNYTYTVPEGIRYLRADKALALAFPDHSRTALQRAFDSGLVTLRGVAIKRDQSVTALDTLEFAMPDI,-0.81
7,HMIQTKNVTFTINEKTKIANIPLKSLKILSQEDNRITLSYEKNSLKIDEIISYFSDKNINILDITTD,-0.451
8,HMEVEADEFQQLLRSGEYVQALDRARANQDIGLRQQQIVQIARHQAASGIQAGAMGSLASLYQF,0.0182
9,HMSAIKSVTTQLDNTKLRTGPDVSYQYTQSYPANTKLTYINKSGTWYQVKDADGNTGYVASWVVTPSE,0.236
10,HMNPLSELSFEERRELFLEAAVRLFEEKGYKNTSVEDIAGELGFTKKVFYYYWKNKREIVQEIHDRGMA,-0.479
11,HMDLHSQVFESYERKIREVLREGPLTFEEILHAFALKRHETVAQVITYLMDEGKMSDSGDGKLIYSG,-0.558
12,HMNPSKEFNMSDLLKAKMVGDVSAAKRREKAGALLHIGYGNAKTFLKKLNHFSISREEWDKVIAAMEEF,-0.743
13,HMIQQFTYAFAKDKGVVVLPGRDVLTLGMRAGADPLVLLEARRALGSSFELEPLDRDTYERTLADVFTADA,-0.695
14,HMASFASRAEEVMTKLLANGQPRIKEVADAMHLSSRTLQRRLEREGVSFAELLDRLRKRLAHDMLAHS,-0.813
15,HMDDLATAYKAMGVDASISDKDLKRAYRKLMSQHHPDKMIAKGVPADMVAMATEKTQEIQAAYDLIERSR,0.127
16,HMPDLSGEEQQIVDILAQRGNLQINTLVVETDIPVHKMNAILFELEMKGVVRVLAGGMYQLL,-0.263
17,HMEAAIRNALSRVENPDETQRARIYRTAHDALIRNLENRGITDPEQVRPQVSRLKDLISVIEREYHG,-0.0521
18,HMSTVELPVQINGKVRGRITVPANAGQEDVKQAALADSKVQRYIEGASIRKVIVVPRKLVNIVV,0.13
19,HMENVRKTEWVTISNDKSQTRTTVYFESGNQKLDKHPQIQGFEYQRTYVEGGVKYYLFVEKGTKLDE,-0.166
20,HMSNEIIFNQKSITRFLMNPENNSPMIYPLELGHEMKVIKKNNDWLNVTDEKTGLNGWVISDDFGLTKPEG,-0.212
21,HMKKPIYLTIANDIEKKIFNNDYPKNERLPSERNLAEEYGVTRMTIRNSIEYLVSKGLLEKRLGSGNYVKR,-0.646
22,HMTVRLSVSADGKFFWNESQVSEEELFPRLQAEAAKEPQPDLHIRGDKNVRYEFVAQAMAAAQRAGVRKI,-0.404
23,HMTPDVHRGDTITVSLRAGAIRVRVPAKALEEGAAGGEIRVVNLTGGREYRVRVTGPGTAEAIL,0.0275
24,HMNPNFIEVSHGRLRVNVPLSAYEGTTYHIKPEEAEKLKRTLASRYPWLTPNALKVFIEEAEQAMRERIQ,-0.29
25,HMDFFTAAPEEDEIGKRIDVYIAEYKEELSRSRVQKLIENGLVTVNGKAVKSNYKLRKGDILEVEIPDPE,0.0151

row,Sequence,soluble fraction (log2)
1,HMPSIGKNILYYRKKRNMTIDELSKKSGVSKSMLSQVEQEKTNPTVVTVWKIARSLDVSINQLLQT,-0.489
2,HMTPPPTNSREWMEWGISHGLDANLDRSGQVVFYTDDRVVADAAELSGADLERDNMGQFVIYTGAYDKG,0.0665
3,HMDNQYGVYSDEKNNVEIHWKRIDHPSVAKDHLDIEAYQNGKRVDINNQQADHYRYLINQEMNE,0.0952
4,HMAKRYFVTTGVRVRTKPDTANSEVLTVLDEGSEIDYKGDYNNEWVKINYNGQEAYIAKQYVRSEE,-0.377
5,HMDLYEILGVRRGAGGGEIRRAYRRLARRYHPDVNPGDREAQARYALITRAFETLNDPERRRAYDAGVP,-0.34
6,HMKIDANTFTSIEKQLFVLLSKTPTPMGSIFVALAKEDKEAVWEVIHFLEAENRLIMNEDGTIQL,-1.39
7,HMYMFSGQRLKSLRKEKKMSQEKLGSLLNISKVAVSNWENAKSFPTMDNLNELAKVLEVEPHYF,-1.16
8,HMLEQISDPEVLSKLADEVLSQQEKMVMDYRKGKTAAFQGLMGQMMKKTKGKGNPAKIQEILAQKL,0.193
9,HMITDQQKEQLSSLLKQAEAALAKAAANDQVLAAHKDEAVELLKSTSATSADAADLINELTELLKPYQ,0.352
10,HMGPSVGMTVGEMERDLIFRTLETVGDNRTKAADMLGISIRTLRNKLNEYREAGFEWPRKAG,0.00867
11,HMIRVGRPQYKRGEFVSFDFDNGRKKTEMYGRVDVIDSYGTFGQGREVSYDIRASDGILYKHIPESSVYGF,-1.5
12,HMQMSDTGAIEAMVKEALDENPQAIEDFKNGKGKALGFLMGQVMKKSKGQANGGIVNKLIKEELQKRIG,0.181
13,HMDEPVDRLSPREQEVLALMAEGRSNAAIAHRLSITEKAVAKHINSIFTKLDLPLDEDDHRRVRAVLAWLR,-0.274
14,HMTLFDESGYTARELEIIREVANGLSNKEIADKLFLSEGTVKNYITGILAKENLSHRTALAVYYLTGRK,0.0583
15,HMTNYYTVTFKEGDTVLKEVSVHSGDGVPYAVAPKRDDIVGWSYNGNTYTTDLNTLKIKKEVTFTAVT,-0.222
16,HMGEENLKYPLLTDGSVKTTVLEAIDKDEKWLREELAKQGYDDLSKLFLVDYLGGQLVVTPY,0.277
17,HMPSLSPDETVVVDALRQQNDMQINMISVKTNLPIARLSAILFEMELKGVLKPLAGGVYHLL,-0.316
18,HMSVTMPNLVGLDEQTAVTRINSSNLSYGSTNYVHSDHEAGVVFKQSTPAYTEVDEHTKIYIWVSLGPEE,-0.0912
19,HMEKYNIIVDNEDNFRLDKIIALNMKDLSRTMIQEMINRGLVSVNGKITKASYKTKLNDQIEIMIED,-0.28
20,HMNEVIIKNWSNAVGRNIKIKTKRGRPIFGRLLAINDQQLTIASKYMRGNATITVAREDVVSMSVS,-0.516
21,HMTNQKEITYSQFRQELDQGSIKSVSLQGSRIRGTYVDGGISFRTLAPNDADLIPSLMKHKVDIQVLPED,0.247
22,HMTTLEGIEKYLGSGMIRGIGPAYAGRLTKVFGEAVFDVIEQSPERLREVEGIGPKRVSRIVSGWAEQ,-0.264
23,HMGLNLIGLKRSGFAPEEVKAMTRAYMYIFKSAEGNFESRLAKAHEKYKDDALIMEMVEFIDDALKG,-0.906
24,HMDFDQELFDKIVEATMDEARAAMDTDDKNVREERWNKLIEHWHELFLEDYPEMDKYLEEITYKFQKNPAT,-0.302
25,HMYSYSGSVSNTHDVPVSVVLKDAEGVAIASWDLQAKQSLNISAKDIATSSGTIEITGDGVSETKTVTFTK,0.391

row,Sequence,soluble fraction (log2)
1,HMSLIEQKSQIPLVQGGQRVDKVAAALFTDFSRAELTGWIQQGALTLDGAVVKPKYKVLGGEWLYLRASQS,-2.02
2,HMFKYRELLDWAKNRFDDLEVSIAPKALALLVESIGTDLRLLDSEIQKLSMYKPLEMISTNDVEDLVA,-0.357
3,HMSSWEVLAEPIQTVMRRYGVPGAYEKLKEVTRGKSLTAEALHALIRSLDIPQADKERLLALTPAAWA,-0.703
4,HMSDAKKRAFSKDEILYSLKNRPFTSFDIESLFDDESKKTFIGLLDKGEISEKKVAGTIFYYLR,-0.0659
5,HMAAADLNMRAKLADLGGMSYGELSIWEKTHGMEFAAWEHEWEKLNSGTQADGLKFPKHLPEGFPT,0.0468
6,HMQTPPGRYRHYKGGLYEVIATARHSETLEPMTVYRALYGEQGLWVRPAAMFAEDITLEGVRQPRFARI,-1.91
7,HMNQNHFLDSVVEFAKDEASRAFFQKAVKKLGEGLVEEAMGEVKMREADGSVNSRAPYFIALLENWMENR,0.0128
8,HMDPASYEARLSTLREQGAQQLDPVRFQYLATLAQRLPTQTPGVALILANKLRAGLSDYEQRLSEAGS,-0.0289
9,HMDRAIAAHLEARVRDALKQLSPEQTRVIELFFFDNKTHAEIENDLKIPLGTVKSRLRLALNKLRASL,-1.96
10,HMSSDLVDYLVKYVAIVDNQEIEIADSKIGTAELGTTVSEVAKTVGNYYPKATVLSVKITGRNQEIVFEY,-2.83
11,HMAAESWTEKSRALAAAGLVVMGRDAQTKIEELTNLAPLIEAANASNTRLLTSQSIDELLSIVPTEENL,0.0724
12,HMPVTKSARQSRIGELIAREPVRSQSELAARLADDGIVVSQGTLSKDLLELGAVRVRTSSGELAYALL,-0.18
13,HMLSRKEVFTVSQKDIEKNPIGAADKFFDGHVGIHKLLVVDEEDRLRGLFTLSDIERINDEQ,0.0269
14,HMAQTEIPYSEFLREVGNGQIKSVIIEGSEITGFYKTSGTSFNVVAPDDPKLVERLMDQGVEVRAQPT,0.0919
15,HMDNMFVEERQALIYEELQSNGRVRVKDLSKKFNVSEDLIRKDLNVLEKEGKLRKIYGGAVLAK,0.568
16,HMKEQLEAYVNRLFADAALTIRNAEVRQEILQHALDRYDDLIASGKTEQEAYDETVSGIGDVSGLYEHK,-0.195
17,HMSEYILATNDGEFLRITSYSKEEGGMLVWEKTSSIVSAEHKVIPYSQIINIKDRNGDVVWDKD,-0.346
18,HMGSVVATLRKLIIDGHYPAGTRLAEIPVANALGVSRTPVRLAFRTLQQEGLLQTVGKRGIVVRAF,-1.21
19,HMRREKVLIKLAENLASKVLRTKKSIELEPMTPYERKVIHTTIENISGVKSWSEGENLQRHLIVALDE,-1.3
20,HMDKLNKELVSRMMDDAAWKELSKDFPWTEQLLEKYMNYVDWKEISRNYNVVWTKSLLEKFKHRLDWHE,-1.44
21,HMQSANQLIKLSRKRKGLTQQELADQAGVSLRTVQRIEKGTEEISGFSLKQISQILEIPLEQLIM,-0.146
22,HMQISDESQLREVVSKILEENEQSVIDYKNGKTRAMGFIIGQVMKATRGKANPQLVNEIVKEMLDE,0.097
23,HMSTLGIRIKHYRTDSNLTQKELAGLINVKRDALANWETDRALPDVMNLKKLAEVFQVSTDELLQV,-0.927
24,HMNSFGWESLIDKEGIADTDLHPSGWVRIDDRRIFVVSEGDFIDKGSGVTVLSVDGNRVVVRELI,-0.836
25,HMSYLELENLAEDIKATYDNLSTDLREVFRLSDIEGLSYEEISNKMNIPIGTVRSRLHRARETLLRIFNN,-0.933
